Measurements published in paper PMC5748837, “Biochemical characterization of INTS3 and C9ORF80, two subunits of hNABP1/2 heterotrimeric complex in nucleic acid binding” (Biochemical Journal, 2017).

B1: Human nucleic acid-binding protein 1 (hNABP1) (natural protein, UniProt Q96AH0 1-204, looked up)
chain: MNRVNDPLIFIRDIKPGLKNLNVVFIVLEIGRVTKTKDGHEVRSCKVADKTGSITISVWDEIGGLIQPGDIIRLTRGYASMWKGCLTLYTGRGGELQKIGEFCMVYSEVPNFSEPNPDYRGQQNKGAQSEQKNNSMNSNMGTGTFGPVGNGVHTGPESREHQFSHAGRSNGRGLINPQLQGTASNQTVMTTISNGRDPRRAFKR
notes: also called hSSB2; source: also co-expressed (pET29a) with GST-INTS3 and C9ORF80 in E. coli Rosetta 2, in lysate
B2: Human nucleic acid-binding protein 2 (hNABP2) (natural protein, UniProt Q9BQ15 1-211, looked up)
chain: MTTETFVKDIKPGLKNLNLIFIVLETGRVTKTKDGHEVRTCKVADKTGSINISVWDDVGNLIQPGDIIRLTKGYASVFKGCLTLYTGRGGDLQKIGEFCMVYSEVPNFSEPNPEYSTQQAPNKAVQNDSNPSASQPTTGPSAASPASENQNGNGLSAPPGPGGGPHPPHTPSHPPSTRITRSQPNHTPAGPPGPSSNPVSNGKETRRSSKR
notes: also called hSSB1; source: also co-expressed (pET29a) with GST-INTS3 and C9ORF80 in E. coli Rosetta 2, in lysate
B3: C9ORF80, His-tagged (natural protein, human, UniProt Q9NRY2 1-104, looked up)
chain: MAANSSGQGFQNKNRVAILAELDKEKRKLLMQNQSSTNHPGASIALSRPSLNKDFRDHAEQQHIAAQQKAALQHAHAHSSGYFITQDSAFGNLILPVLPRLDPE
notes: C9ORF80, human cDNA clone; pET28a, NcoI/XhoI sites (this would give a C-terminal His tag); the printed masses fit the whole 104-residue protein; also called C9OFR80; source: peak 2); also co-expressed with GST-INTS3 and hNABP1/2 in E. coli Rosetta 2, in lysate

biological target: T1, GST-tagged N-terminal region of INTS3 (GST-INTS3^N, 1-513 amino acids) (human, UniProt Q68E01 1-513); assay: pull-down; GST-INTS3^FL, -INTS3^N or -INTS3^C incubated with hNABP1/2 or C9ORF80 at 4 C for 1 h, then glutathione-agarose beads 1 h; eluted with 10 mM glutathione; Western blot; settings: both partners purified
T1 construct: Integrator complex subunit 3 (INTS3), human, N-terminal region, residues 1-513; pGEX-6P-1; source: E. coli Rosetta 2, purified (glutathione sepharose beads); not shown: GST, N-terminal, kept
T1 sequence (Q68E01 1-513): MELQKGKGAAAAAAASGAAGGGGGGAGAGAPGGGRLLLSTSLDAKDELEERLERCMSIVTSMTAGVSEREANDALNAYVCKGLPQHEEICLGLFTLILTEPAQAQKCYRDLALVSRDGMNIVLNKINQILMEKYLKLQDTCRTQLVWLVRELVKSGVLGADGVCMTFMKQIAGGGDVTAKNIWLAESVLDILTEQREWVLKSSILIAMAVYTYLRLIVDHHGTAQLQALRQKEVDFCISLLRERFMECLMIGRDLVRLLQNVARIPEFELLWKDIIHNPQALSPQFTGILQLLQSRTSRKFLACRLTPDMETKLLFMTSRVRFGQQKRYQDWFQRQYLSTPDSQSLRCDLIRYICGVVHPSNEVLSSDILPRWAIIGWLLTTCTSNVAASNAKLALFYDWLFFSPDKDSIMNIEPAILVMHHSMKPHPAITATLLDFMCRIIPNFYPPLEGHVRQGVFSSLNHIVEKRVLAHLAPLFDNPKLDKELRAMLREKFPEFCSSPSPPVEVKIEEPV

| Binder | binding result |
| --- | --- |
| B1 | binds |
| B2 | binds |
| B3 | binds |
